According to article PMC7387808 (Cellular and Molecular Immunology, 2020):

Target: T1, TOM70 (full-length, recombinant, analyte of the BLI) (human, UniProt O94826 1-608)
T1 construct: also called Mitochondrial import receptor subunit TOM70
T1 sequence (looked up): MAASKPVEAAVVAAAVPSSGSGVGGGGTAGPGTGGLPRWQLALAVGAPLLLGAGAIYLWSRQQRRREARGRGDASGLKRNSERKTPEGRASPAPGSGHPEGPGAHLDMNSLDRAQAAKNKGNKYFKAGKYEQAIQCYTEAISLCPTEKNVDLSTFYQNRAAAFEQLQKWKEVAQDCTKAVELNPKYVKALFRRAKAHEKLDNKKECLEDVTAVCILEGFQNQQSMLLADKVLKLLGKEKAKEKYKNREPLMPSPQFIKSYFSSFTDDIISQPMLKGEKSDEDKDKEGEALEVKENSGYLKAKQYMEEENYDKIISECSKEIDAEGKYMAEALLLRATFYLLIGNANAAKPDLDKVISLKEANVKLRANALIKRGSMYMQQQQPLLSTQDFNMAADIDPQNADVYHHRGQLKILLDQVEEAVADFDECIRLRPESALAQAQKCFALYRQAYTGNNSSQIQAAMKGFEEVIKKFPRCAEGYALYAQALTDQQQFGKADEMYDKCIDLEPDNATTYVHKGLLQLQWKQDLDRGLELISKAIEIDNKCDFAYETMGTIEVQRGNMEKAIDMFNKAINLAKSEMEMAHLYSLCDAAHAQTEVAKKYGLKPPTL
Experiment: BLI; […]; kinetics ([…]) buffer 1x PBS pH 7.4, 0.1% BSA, 0.02% Tween-20; association 5 min, dissociation 5 min; […]; 1:1 global fit
Conditions: both partners purified

B1: SARS-CoV Orf9b, biotinylated (C-terminal Avi-His6) (natural protein)
chain: MDPNQTNVVPPALHLVDPQIQLTITRMEDAMGQGQNSADPKVYPIILRLGSQLSLSMARRNLDSLEARAFQSTPIVVQMTKLATTEELPDEFVVVTAK
notes: also called Biotinylated Orf9b
Binder B1 has a Kd of 41.6 ± 1.01 nM, a koff of 0.00244 s⁻¹ and a kon of 58600 M⁻¹ s⁻¹.
